Variants at the floor of the assay were thinned out.
Columns and labels:
biotinyl-Phe-oxazolone = test: self-aminoacylation, catalytic enhancement (BFO) (fold over background); higher = more active; k-Seq, kA / k0A0; sequences stand for … in GGGAAUGGAUCCACAUCUACGAAUUC…UUCACUGCAGACUUGACGAAGCUG
Procedure, shortened: (§1)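 Mutagenized RNA pools with a 21-nt variable region (0.43 μM) reacted with each biotinyl-aminoacyl-oxazolone at 2–1250 μM. Reactions ran in 50 μL HEPES/NaCl/KCl/MgCl2/CaCl2 buffer with 5% acetonitrile, pH 6.9–7.0, for 90 minutes at room temperature. Streptavidin-captured RNA was quantified by triplicate qPCR and Illumina sequencing, and per-sequence fraction reacted was fit to a pseudo-first-order model with 1000 bootstraps. Catalytic enhancement is median kA divided by the uncatalyzed rate, the low-activity peak of a bimodal Gaussian fit.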

biotinyl-Ile-oxazolone = test: self-aminoacylation, catalytic enhancement (BIO) (fold over background); higher = more active; k-Seq, kA / k0A0; sequences stand for … in GGGAAUGGAUCCACAUCUACGAAUUC…UUCACUGCAGACUUGACGAAGCUG
Procedure, shortened: as §1

biotinyl-Met-oxazolone = test: self-aminoacylation, catalytic enhancement (BMO) (fold over background); higher = more active; k-Seq, kA / k0A0; sequences stand for … in GGGAAUGGAUCCACAUCUACGAAUUC…UUCACUGCAGACUUGACGAAGCUG
Procedure, shortened: as §1

biotinyl-Val-oxazolone = test: self-aminoacylation, catalytic enhancement (BVO) (fold over background); higher = more active; k-Seq, kA / k0A0; sequences stand for … in GGGAAUGGAUCCACAUCUACGAAUUC…UUCACUGCAGACUUGACGAAGCUG
Procedure, shortened: as §1

biotinyl-Leu-oxazolone = test: self-aminoacylation, catalytic enhancement (BLO) (fold over background); higher = more active; k-Seq, kA / k0A0; sequences stand for … in GGGAAUGGAUCCACAUCUACGAAUUC…UUCACUGCAGACUUGACGAAGCUG
Procedure, shortened: as §1

biotinyl-Trp-oxazolone = test: self-aminoacylation, catalytic enhancement (BWO) (fold over background); higher = more active; k-Seq, kA / k0A0; sequences stand for … in GGGAAUGGAUCCACAUCUACGAAUUC…UUCACUGCAGACUUGACGAAGCUG
Procedure, shortened: as §1

Sequence	self-aminoacylation (biotinyl-Phe-oxazolone)	self-aminoacylation (biotinyl-Ile-oxazolone)	self-aminoacylation (biotinyl-Met-oxazolone)	self-aminoacylation (biotinyl-Val-oxazolone)	self-aminoacylation (biotinyl-Leu-oxazolone)	self-aminoacylation (biotinyl-Trp-oxazolone)
AAAACCCUGGUCAUCGAGUGA [Fam2.1 aminoacylation ribozyme variant]	462	26.8	66.9	26.3	65.1	73.3
AAACACCUAGGUCAUCGGGUG [Fam2.2 aminoacylation ribozyme variant]	23.9	3.41	2.46	3.09	3.04	4.7
AAACUUGCUAAUAGUCGCAAG [Fam3.1 aminoacylation ribozyme variant]	2.21	2.62	1.76	1.97	1.29	4.6
AAAUGUGCUAAUAGUCGCAAG [Fam3.1 aminoacylation ribozyme variant]	2.84	2.12	2.16	1.46	1.53	1.48
AAAUUGGCUAAUAGUCGCAAG [Fam3.1 aminoacylation ribozyme variant]	2.72	2.32	1.84	2.05	2.05	3.11
AAAUUUGCUAAGAGUCGCAAG [Fam3.1 aminoacylation ribozyme variant]	2.61	2.05				2.51
AAAUUUGCUAAUAGUCGCAAA [Fam3.1 aminoacylation ribozyme variant]	2.95	3.32	3.08	2.41	3.17	3.82
AAAUUUGCUAAUAGUCGCAGG [Fam3.1 aminoacylation ribozyme variant]	2.3	1.97	2.11	1.79	2.47	3.16
AAAUUUGUUAAUAGUCGCAAG [Fam3.1 aminoacylation ribozyme variant]	2.69	2.11	2.04	1.59	1.99	1.76
AACAUUGCUAAUAGUCGCAAG [Fam3.1 aminoacylation ribozyme variant]	2.9	2.5				2.67
AACUAUGCUAAUAGUCGCAAG [Fam3.1 aminoacylation ribozyme variant]	2.45	2.41			2.16	
AACUUUGCUAAUAAUCGCAAG [Fam3.1 aminoacylation ribozyme variant]	3.06	1.93	1.96	1.96	2.04	2.71

Source: the supplement of paper PMC9233669
